According to patent US20210261648A1 (published 2021):

T1: FcγRIIb extracellular domain with C-terminal His tag (human, UniProt P31994 43-217)
T1 construct: extracellular domain; also called FcgRIIb
T1 sequence (looked up): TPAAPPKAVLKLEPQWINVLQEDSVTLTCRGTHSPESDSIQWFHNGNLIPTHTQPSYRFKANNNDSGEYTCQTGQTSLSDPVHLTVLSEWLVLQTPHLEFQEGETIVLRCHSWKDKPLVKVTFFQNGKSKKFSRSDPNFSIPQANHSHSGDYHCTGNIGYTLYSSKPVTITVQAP

T2: FcγRIIa type H extracellular domain with C-terminal His tag (human, UniProt P12318 34-217)
T2 construct: extracellular domain; also called FcgRIIaH; FcγRIIa H
T2 sequence (looked up): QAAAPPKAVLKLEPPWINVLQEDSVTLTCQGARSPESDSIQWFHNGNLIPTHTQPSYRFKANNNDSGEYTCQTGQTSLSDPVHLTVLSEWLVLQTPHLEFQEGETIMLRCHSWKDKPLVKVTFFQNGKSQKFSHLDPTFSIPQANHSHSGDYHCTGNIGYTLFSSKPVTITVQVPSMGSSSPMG

T3: FcγRIIb extracellular domain with C-terminal His tag (human, UniProt P31994 43-217)
T3 construct: extracellular domain; For crystals it was expressed with kifunensine and trimmed with Endo F1; also called FcgRIIb; FcγRIIb extracellular region
T3 sequence (looked up): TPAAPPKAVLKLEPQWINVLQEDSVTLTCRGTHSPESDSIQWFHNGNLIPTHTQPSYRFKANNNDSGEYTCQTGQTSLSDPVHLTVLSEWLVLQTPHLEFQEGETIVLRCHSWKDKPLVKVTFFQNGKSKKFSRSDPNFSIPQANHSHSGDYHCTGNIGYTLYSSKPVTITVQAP


How the values were obtained:
[1] = biological target: T1, FcγRIIb extracellular domain with …; test: SPR, captured antibody, FcgR analyte
Experimental: (§1) Relative binding activities were calculated for the results of analyzing interactions with the respective FcγRs according to the following method.

[2] = biological target: T2, FcγRIIa type H extracellular domain …; test: SPR, captured antibody, FcgR analyte
Experimental: as §1

[3] = biological target: T4, FcγRIa extracellular domain with C-terminal His tag (human, UniProt P12314 16-292); test: SPR, captured antibody, FcgR analyte
T4 construct: also called FcgRIa
Experimental: as §1

[4] = biological target: T3, FcγRIIb extracellular domain with …; test: SPR (Biacore)

T4 sequence (P12314 16-292): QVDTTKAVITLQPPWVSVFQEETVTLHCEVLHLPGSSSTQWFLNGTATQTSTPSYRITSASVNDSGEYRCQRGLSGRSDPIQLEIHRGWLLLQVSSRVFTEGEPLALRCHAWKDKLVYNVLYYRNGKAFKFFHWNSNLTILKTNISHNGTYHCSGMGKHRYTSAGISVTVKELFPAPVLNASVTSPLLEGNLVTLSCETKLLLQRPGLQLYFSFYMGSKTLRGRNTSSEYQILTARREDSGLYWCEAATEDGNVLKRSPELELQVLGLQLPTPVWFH

| relative binding activity [1] | relative binding activity [2] | relative binding activity [3] | binding result [4] | fold increase of binding against IL6R-BP264/IL6R-L [4] [fold] | Binder |
| --- | --- | --- | --- | --- | --- |
| 186 relative (IL6R-BF648/IL6R-L = 100) | 359 relative (IL6R-BF648/IL6R-L = 100) | 57 relative (IL6R-BF648/IL6R-L = 100) | – | – | IL6R-BP201/IL6R-L (antibody, human IgG1, kappa) heavy: QVQLQESGPGLVKPSETLSLTCAVSGHSISHDHAWSWVRQPPGEGLEWIGFISYSGITNYNPSLQGRVTISRDNSKNTLYLQMNSLRAEDTAVYYCARSLARTTAMDYWGEGTLVTVSSASTKGPSVFPLAPSSKSTSGGTAALGCLVKDYFPEPVTVSWNSGALTSGVHTFPAVLQSSGLYSLSSVVTVPSSSLGTQTYICNVNHKPSNTKVDKKVEPKSCDKTHTCPPCPAPDLLGDDSVFLFPPKPKDTLMISRTPEVTCVVVDVSHEDGEVKFNWYVDGVEVHNAKTKPREEQYNSTYRVVSVLTVLHQDWLNGKEYKCKVSNKALPRPIEKTISKAKGQPREPQVYTLPPSRDELTKNQVSLTCLVKGFYPSDIAVEWESNGQPENNYKTTPPVLDSDGSFFLYSKLTVDKSRWQQGNVFSCSVMHEALHNHYTQESLSLSP light: not shown |
| 179 relative (IL6R-BF648/IL6R-L = 100) | 446 relative (IL6R-BF648/IL6R-L = 100) | 47 relative (IL6R-BF648/IL6R-L = 100) | – | – | IL6R-BP185/IL6R-L (antibody, human IgG1, kappa) heavy: QVQLQESGPGLVKPSETLSLTCAVSGHSISHDHAWSWVRQPPGEGLEWIGFISYSGITNYNPSLQGRVTISRDNSKNTLYLQMNSLRAEDTAVYYCARSLARTTAMDYWGEGTLVTVSSASTKGPSVFPLAPSSKSTSGGTAALGCLVKDYFPEPVTVSWNSGALTSGVHTFPAVLQSSGLYSLSSVVTVPSSSLGTQTYICNVNHKPSNTKVDKKVEPKSCDKTHTCPPCPAPDYLGDDSVFLFPPKPKDTLMISRTPEVTCVVVDVSHEDGEVKFNWYVDGVEVHNAKTKPREEQYNSTYRVVSVLTVLHQDWLNGKEYKCKVSNAALPKPIEKTISKAKGQPREPQVYTLPPSRDELTKNQVSLTCLVKGFYPSDIAVEWESNGQPENNYKTTPPVLDSDGSFFLYSKLTVDKSRWQQGNVFSCSVMHEALHNHYTQESLSLSP light: not shown |
| 185 relative (IL6R-BF648/IL6R-L = 100) | 285 relative (IL6R-BF648/IL6R-L = 100) | 43 relative (IL6R-BF648/IL6R-L = 100) | – | – | IL6R-BP202/IL6R-L (antibody, human IgG1, kappa) heavy: QVQLQESGPGLVKPSETLSLTCAVSGHSISHDHAWSWVRQPPGEGLEWIGFISYSGITNYNPSLQGRVTISRDNSKNTLYLQMNSLRAEDTAVYYCARSLARTTAMDYWGEGTLVTVSSASTKGPSVFPLAPSSKSTSGGTAALGCLVKDYFPEPVTVSWNSGALTSGVHTFPAVLQSSGLYSLSSVVTVPSSSLGTQTYICNVNHKPSNTKVDKKVEPKSCDKTHTCPPCPAPELLGDDSVFLFPPKPKDTLMISRTPEVTCVVVDVSHEDGEVKFNWYVDGVEVHNAKTKPREEQYNSTYRVVSVLTVLHQDWLNGKEYKCKVSNAALPRPIEKTISKAKGQPREPQVYTLPPSRDELTKNQVSLTCLVKGFYPSDIAVEWESNGQPENNYKTTPPVLDSDGSFFLYSKLTVDKSRWQQGNVFSCSVMHEALHNHYTQESLSLSP light: not shown |
| – | – | – | binds | – | IL6R-BP448/IL6R-L (antibody, human IgG1, kappa, name in EU numbering) heavy: QVQLQESGPGLVKPSETLSLTCAVSGHSISHDHAWSWVRQPPGEGLEWIGFISYSGITNYNPSLQGRVTISRDNSKNTLYLQMNSLRAEDTAVYYCARSLARTTAMDYWGEGTLVTVSSASTKGPSVFPLAPSSKSTSGGTAALGCLVKDYFPEPVTVSWNSGALTSGVHTFPAVLQSSGLYSLSSVVTVPSSSLGTQTYICNVNHKPSNTKVDKKVEPKSCDKTHTCPPCPAPDLLGDDSVFLFPPKPKDTLMISRTPEVTCVVVDVAEEDGEVKFNWYVDGVEVHNAKTKPREEQYNSTYRVVSVLTVLHQDWLNGKEYKCKVSNKALPRPIEKTISKAKGQPREPQVYTLPPSRDELTKNQVSLTCLVKGFYPSDIAVEWESNGQPENNYKTTPDVLDSDGSFFLYSKLTVDKSRWQQGNVFSCSVMHEALHNHYTQESLSLSP light: not shown |
| 173 relative (IL6R-BF648/IL6R-L = 100) | 135 relative (IL6R-BF648/IL6R-L = 100) | 117 relative (IL6R-BF648/IL6R-L = 100) | – | – | IL6R-BP212/IL6R-L (antibody, human IgG1, kappa) heavy: QVQLQESGPGLVKPSETLSLTCAVSGHSISHDHAWSWVRQPPGEGLEWIGFISYSGITNYNPSLQGRVTISRDNSKNTLYLQMNSLRAEDTAVYYCARSLARTTAMDYWGEGTLVTVSSASTKGPSVFPLAPSSKSTSGGTAALGCLVKDYFPEPVTVSWNSGALTSGVHTFPAVLQSSGLYSLSSVVTVPSSSLGTQTYICNVNHKPSNTKVDKKVEPKSCDKTHTCPPCPAPDLLGGDSVFLFPPKPKDTLMISRTPEVTCVVVDVSDEDGEVKFNWYVDGVEVHNAKTKPREEQDNSTYRVVSVLTVLHQDWLNGKEYKCKVSNKALPRPIEKTISKAKGQPREPQVYTLPPSRDELTKNQVSLTCLVKGFYPSDIAVEWESNGQPENNYKTTPPVLDSDGSFFLYSKLTVDKSRWQQGNVFSCSVMHEALHNHYTQESLSLSP light: not shown |
| – | – | – | binds | – | IL6R-BP450/IL6R-L (antibody, human IgG1, kappa, name in EU numbering) heavy: QVQLQESGPGLVKPSETLSLTCAVSGHSISHDHAWSWVRQPPGEGLEWIGFISYSGITNYNPSLQGRVTISRDNSKNTLYLQMNSLRAEDTAVYYCARSLARTTAMDYWGEGTLVTVSSASTKGPSVFPLAPSSKSTSGGTAALGCLVKDYFPEPVTVSWNSGALTSGVHTFPAVLQSSGLYSLSSVVTVPSSSLGTQTYICNVNHKPSNTKVDKKVEPKSCDKTHTCPPCPAPDLLGDDSVFLFPPKPKDTLMISRTPEVTCVVVDVAEEDGEVKFNWYVDGVEVHNAKTKPREEQYNSTYRVVSVLTVLHQDWLNGKEYKCKVSNKALPRPIEKTISKAKGQPREPQVYTLPPSRDELTKNQVSLTCLVKGFYPSDIAVEWESNGQPENNYKTTPFVLDSDGSFFLYSKLTVDKSRWQQGNVFSCSVMHEALHNHYTQESLSLSP light: not shown |
| – | – | – | binds | – | IL6R-BP449/IL6R-L (antibody, human IgG1, kappa, name in EU numbering) heavy: QVQLQESGPGLVKPSETLSLTCAVSGHSISHDHAWSWVRQPPGEGLEWIGFISYSGITNYNPSLQGRVTISRDNSKNTLYLQMNSLRAEDTAVYYCARSLARTTAMDYWGEGTLVTVSSASTKGPSVFPLAPSSKSTSGGTAALGCLVKDYFPEPVTVSWNSGALTSGVHTFPAVLQSSGLYSLSSVVTVPSSSLGTQTYICNVNHKPSNTKVDKKVEPKSCDKTHTCPPCPAPDLLGDDSVFLFPPKPKDTLMISRTPEVTCVVVDVAEEDGEVKFNWYVDGVEVHNAKTKPREEQYNSTYRVVSVLTVLHQDWLNGKEYKCKVSNKALPRPIEKTISKAKGQPREPQVYTLPPSRDELTKNQVSLTCLVKGFYPSDIAVEWESNGQPENNYKTTPEVLDSDGSFFLYSKLTVDKSRWQQGNVFSCSVMHEALHNHYTQESLSLSP light: not shown |
| – | – | – | binds | – | IL6R-BP391/IL6R-L (antibody, human IgG1, kappa) heavy: QVQLQESGPGLVKPSETLSLTCAVSGHSISHDHAWSWVRQPPGEGLEWIGFISYSGITNYNPSLQGRVTISRDNSKNTLYLQMNSLRAEDTAVYYCARSLARTTAMDYWGEGTLVTVSSASTKGPSVFPLAPSSKSTSGGTAALGCLVKDYFPEPVTVSWNSGALTSGVHTFPAVLQSSGLYSLSSVVTVPSSSLGTQTYICNVNHKPSNTKVDKKVEPKSCDKTHTCPPCPAPDLLGDDSVFLFPPKPKDTLMISRTPEVTCVVVDVSDEDGEVKFNWYVDGVEVHNAKTKPREEQDNSTYRVVSVLTVLHQDWLNGKEYKCKVSNKALPRPTEKTISKAKGQPREPQVYTLPPSRDELTKNQVSLTCLVKGFYPSDIAVEWESNGQPENNYKTTPPVLDSDGSFFLYSKLTVDKSRWQQGNVFSCSVMHEALHNHYTQESLSLSP light: not shown |
| 187 relative (IL6R-BF648/IL6R-L = 100) | 279 relative (IL6R-BF648/IL6R-L = 100) | 57 relative (IL6R-BF648/IL6R-L = 100) | – | – | IL6R-BP210/IL6R-L (antibody, human IgG1, kappa) heavy: QVQLQESGPGLVKPSETLSLTCAVSGHSISHDHAWSWVRQPPGEGLEWIGFISYSGITNYNPSLQGRVTISRDNSKNTLYLQMNSLRAEDTAVYYCARSLARTTAMDYWGEGTLVTVSSASTKGPSVFPLAPSSKSTSGGTAALGCLVKDYFPEPVTVSWNSGALTSGVHTFPAVLQSSGLYSLSSVVTVPSSSLGTQTYICNVNHKPSNTKVDKKVEPKSCDKTHTCPPCPAPELLGDDSVFLFPPKPKDTLMISRTPEVTCVVVDVSDEDGEVKFNWYVDGVEVHNAKTKPREEQYNSTYRVVSVLTVLHQDWLNGKEYKCKVSNKALPRPIEKTISKAKGQPREPQVYTLPPSRDELTKNQVSLTCLVKGFYPSDIAVEWESNGQPENNYKTTPPVLDSDGSFFLYSKLTVDKSRWQQGNVFSCSVMHEALHNHYTQESLSLSP light: not shown |
| 174 relative (IL6R-BF648/IL6R-L = 100) | 285 relative (IL6R-BF648/IL6R-L = 100) | 36 relative (IL6R-BF648/IL6R-L = 100) | – | – | IL6R-BP214/IL6R-L (antibody, human IgG1, kappa) heavy: QVQLQESGPGLVKPSETLSLTCAVSGHSISHDHAWSWVRQPPGEGLEWIGFISYSGITNYNPSLQGRVTISRDNSKNTLYLQMNSLRAEDTAVYYCARSLARTTAMDYWGEGTLVTVSSASTKGPSVFPLAPSSKSTSGGTAALGCLVKDYFPEPVTVSWNSGALTSGVHTFPAVLQSSGLYSLSSVVTVPSSSLGTQTYICNVNHKPSNTKVDKKVEPKSCDKTHTCPPCPAPDYLGDDSVFLFPPKPKDTLMISRTPEVTCVVVDVSHEDPEVKFNWYVDGVEVHNAKTKPREEQDNSTYRVVSVLTVLHQDWLNGKEYKCKVSNDALPKPIEKTISKAKGQPREPQVYTLPPSRDELTKNQVSLTCLVKGFYPSDIAVEWESNGQPENNYKTTPPVLDSDGSFFLYSKLTVDKSRWQQGNVFSCSVMHEALHNHYTQESLSLSP light: not shown |
| – | – | – | – | 1.1 | IL6R-BP404/IL6R-L (antibody, human IgG1, kappa) heavy: QVQLQESGPGLVKPSETLSLTCAVSGHSISHDHAWSWVRQPPGEGLEWIGFISYSGITNYNPSLQGRVTISRDNSKNTLYLQMNSLRAEDTAVYYCARSLARTTAMDYWGEGTLVTVSSASTKGPSVFPLAPSSKSTSGGTAALGCLVKDYFPEPVTVSWNSGALTSGVHTFPAVLQSSGLYSLSSVVTVPSSSLGTQTYICNVNHKPSNTKVDKKVEPKSCDKTHTCPPCPAPDYLGDDSVFLFPPKPKDTLMISRTPEVTCVVVDVSEEDGEVKFNWYVDGVEVHNAKTKPREEQDNSTYRVVSVLTVLHQDWLNGKEYKCKVSNKALPRPIEKTISKAKGQPREPQVYTLPPSRDELTKNQVSLTCLVKGFYPSDIAVEWESNGQPENNYKTTPPVLDSDGSFFLYSKLTVDKSRWQQGNVFSCSVMHEALHNHYTQESLSLSP light: not shown |
